Data taken from paper PMC11960969, “Mdga2 deficiency leads to an aberrant activation of BDNF/TrkB signaling that underlies autism-relevant synaptic and behavioral changes in mice” (PLOS Biology, 2025).

Test system: hippocampal proteins
Experiment: DIA quantification proteomics, hippocampus of Mdga2+/- vs WT mice
Design: species or system mouse
Conditions: S3 Table, downregulated DEPs; for log2FC: Mdga2+/- vs WT mouse hippocampus (HET-HIP-VS-WT-HIP), SE, pvalue and adj_pvalue in own columns c3-c5; for Class: regulation class of the protein, HET-HIP-VS-WT-HIP
Description: The hippocampus of 1.5–2-month-old Mdga2^ +/− male mice and their WT littermate controls was collected and sent to the BGI company for DIA quantification proteomics and data analysis. Briefly, samples were lysed and sonicated. After centrifugation, the supernatant was taken for quantification. Equal amounts of proteins (100 μg) per sample were subjected to trypsin enzymatic hydrolysis. After dryness, 10 μg enzymatic peptides per sample were separated by high-pH fractionation into a total of 10 fractions using high-performance liquid chromatography (HPLC) and freeze-dried. Data-dependent acquisition (DDA) fractions and DIA samples were analyzed by nano-LC–MS/MS. DDA data was identified by Andromeda search engine within MaxQuant. Identified results were used by Spectronaut^TM for spectral library construction. For DIA data, Spectronaut^TM used the constructed spectral library information to complete deconvolution and extraction, and used the mProphet algorithm to complete analytical quality control for obtaining reliable quantitative results. The mass spectrometry proteomics data have been deposited to the ProteomeXchange Consortium via the PRIDE [62] partner repository with the dataset identifier PXD050810. DEPs between comparison groups were identified based on the quantitative results, using the fold change >1.1 and p-value <0.05 as the criteria. After retrieval from the UniProtKB database, identified DEPs were processed for GO analysis by using DAVID (https://david.ncifcrf.gov/home.jsp) and Metascape database (https://metascape.org/gp/index.html).

Molecule	log2FC	Class
sp¦Q6A0D4¦RFTN1_MOUSE (protein, UniProt Q6A0D4 2-554, looked up) Raftlin: GCSLNKLEKREEKRPGNIYSTLKRPQVETKVDVTYEYCFLEFTTLTAAELPRSSATRLASLRDLPDQLLELYQQGFSLAALHPFVQPTRRQEKILLEHIFRAILVKKTNRSQKAELHDEGYTLELDYCSSLEHLADQKLIPEFIKKVQEAASQGLKFVSVVPQYQPSVSSAGSRRLKPVANSVEDARDVKCTLGDRSSLENDTPKAAETDAATAGVNRRPETKPGSTGDVPSAQQPGIPSPSAENEAGEFPLRGLQPALDRSEGDPSNGPEELPSRKMEIFAFFNRPKSQQKCRQYYPVTIPLQVSKNGQTVSSLDASWLEHMSDHFRKGGVLVNAVFQLGMANDSFYGLTDGVFIFEAVSTEDNRTTQGYDAIVVEQWTVLEGTEVQTDYMPLLNSLAAYGWQLTCVLPTPILKTTREGNVSTKQIVFLQRPCLPQKTKKRESKFQWRFSRNEIHGRQTRKSKGKLSASNKQQAEENEKNLEDQFSKAGDVGNCVLGAPQWGRASEVREQRQGSAAVQNGPAGHNRDSVALRHSNPRAEAELAAGPTPTEAN	-1.516	Down
sp¦Q61097¦KSR1_MOUSE (protein, UniProt Q61097 1-873, looked up) Kinase suppressor of Ras 1: MDRAALRAAAMGEKKEGGGGGAAADGGAGAAVSRALQQCGQLQKLIDISIGSLRGLRTKCSVSNDLTQQEIRTLEAKLVKYICKQQQSKLSVTPSDRTAELNSYPRFSDWLYIFNVRPEVVQEIPQELTLDALLEMDEAKAKEMLRRWGASTEECSRLQQALTCLRKVTGLGGEHKMDSGWSSTDARDSSLGPPMDMLSSLGRAGASTQGPRSISVSALPASDSPVPGLSEGLSDSCIPLHTSGRLTPRALHSFITPPTTPQLRRHAKLKPPRTPPPPSRKVFQLLPSFPTLTRSKSHESQLGNRIDDVTPMKFELPHGSPQLVRRDIGLSVTHRFSTKSWLSQVCNVCQKSMIFGVKCKHCRLKCHNKCTKEAPACRITFLPLARLRRTESVPSDINNPVDRAAEPHFGTLPKALTKKEHPPAMNLDSSSNPSSTTSSTPSSPAPFLTSSNPSSATTPPNPSPGQRDSRFSFPDISACSQAAPLSSTADSTRLDDQPKTDVLGVHEAEAEEPEAGKSEAEDDEEDEVDDLPSSRRPWRGPISRKASQTSVYLQEWDIPFEQVELGEPIGQGRWGRVHRGRWHGEVAIRLLEMDGHNQDHLKLFKKEVMNYRQTRHENVVLFMGACMNPPHLAIITSFCKGRTLHSFVRDPKTSLDINKTRQIAQEIIKGMGYLHAKGIVHKDLKSKNVFYDNGKVVITDFGLFGISGVVREERRENQLKLSHDWLCYLAPEIVREMIPGRDEDQLPFSKAADVYAFGTVWYELQARDWPFKHQPAEALIWQIGSGEGVRRVLASVSLGKEVGEILSACWAFDLQERPSFSLLMDMLERLPKLNRRLSHPGHFWKSADINSSKVMPRFERFGLGTLESGNPKM	-1.493	Down
sp¦Q8C5W0¦CLMN_MOUSE (protein, UniProt Q8C5W0 1-1052, looked up) Calmin: MAAQEWDWFQREELIGQISDIRVQNLQVERENVQKRTFTRWINLHLEKCDPPLEVTDLFVDIQDGKILMALLEVLSGRNLLHEYKSSSHRIFRLNNIAKALKFLEDSNVKLVSIDAAEIADGNPSLVLGLIWNIILFFQIKELTGNLSRSSPSSSLSPGSGGTDSDSSYPPTPTTERSVAVAVKDQRKAIKTLLSWVQRKTRKYGVAVQDFAGSWRSGLAFLAVIKAIDPSLVDMKQALEDSTRDNLEKAFSIAHDSLHIPRLLEPEDIMVDMPDEQSIVTYVAQFLERFPELEPEDFVNPDKEAPIESTFVRIKESPSEQGSRVLLLSENGERAYTVNQETSYPPPDKVFVCDQLESPTGFCLDSAPSHKLSDSSTEFMHEIIDQVLQGSTGKTGSIAEPTPESSILSTRKDGRRSNSLPVKKTVHFEADLHKDASCSKDPFYSSDFRFEGSPKATKELSKQDGHVSLAEVSKEKKKSEQEARLVLEAASDKVPESTVDGLDAVPQDAQPSQDSSFCNGTVESPSSQGEKGPPPSSPGDHTLLANSTELKVQLLTVEPMDKEDYFECIPLKASKFNRDLVDFASTSQAFGEDPSSHEKTRGEEEGSENHAEKPGKRKSKSPRAETEAAESRLEPKKLEPPPKDPEQEDQGHALPPETPADKKPKVYEKAKRKSTRHHSEEEGEAESGFSAVCEEEIPSAPPSTSVSLETLRSHSEEGLDFKPSPPLSKISVIPHDLFYYPHYEVPLAAVLEAYAEGGEDLKSEDTDLEHPEDSYLQDSREEEADEDEEEAQSSQSSCSFSLPVDNSYPSVSEHVSHVDGSSEGPTSALGPGSPPSHEDHQPKETKENGPVESQQSQEPPNPELPTKPLEEKLTEASTSSKKKEKRKHMDHVESSLFIAPGTVRSSDDLEENSSEHKVPSRNSHSDSSIYIRRHTNRSLELDHFSYVQLRNAADLDDRRNRVLNRYNSQKLTELILQFYGIRADMKREYKHARLSMTGTNSSGEAVPLGNQSPPNDSLTQFVQQPDVIYFILFLWLLVYCLLLFPQLDVSRL	-1.505	Down
sp¦P48381¦RFX3_MOUSE (protein, UniProt P48381 1-749, looked up) Transcription factor RFX3: MQTSETGSDTGSTVTLQTSVASQAAVPTQVVQQVPVQQQVQQVQTVQQVQHVYPAQVQYVEGSDTVYTNGAIRTTTYPYTETQMYSQNTGGNYFDTQGSSAQVTTVVSSHSMVGTGGIQMGVTGGQLISSSGGTYLIGNSMENSGHSVTHTTRASPATIEMAIETLQKSDGLSTHRSSLLNSHLQWLLDNYETAEGVSLPRSTLYNHYLRHCQEHKLDPVNAASFGKLIRSIFMGLRTRRLGTRGNSKYHYYGIRVKPDSPLNRLQEDMQYMAMRQQPMQQKQRYKPMQKVDGVADGFTGSGQQTGTSVEQTVIAQSQHHQQFLDASRALPEFGEVEISSLPDGTTFEDIKSLQSLYREHCEAILDVVVNLQFSLIEKLWQTFWRYSPSTPADGTTITESSNLSEIESRLPKAKLITLCKHESILKWMCNCDHGMYQALVEILIPDVLRPIPSALTQAIRNFAKSLEGWLSNAMNNIPQRMIQTKVAAVSAFAQTLRRYTSLNHLAQAARAVLQNTSQINQMLSDLNRVDFANVQEQASWVCQCDDNMVQRLETDFKMTLQQQSTLEQWAAWLDNVMMQALKPYEGRPSFPKAARQFLLKWSFYSSMVIRDLTLRSAASFGSFHLIRLLYDEYMFYLVEHRVAQVTGETPIAVMGEFGDLNAVSPGNLDKDEGSEVESETDEDLDDSSEPRAKREKTELSQAFPVGCMQPVLESAVQPSLLNPLHSEHIVTSTQTIRQCSATGNTYTAV	-1.5061	Down
sp¦Q7TT15¦GLT17_MOUSE (protein, UniProt Q7TT15 1-598, looked up) Polypeptide …: MASLRRVKVLLVLNLIAVAGFVIFLAKCRPIAVRSGDAFHEIRPRAEVANLSAHSASPIQDAVLKRLSLLEDIVYRQLNGLSKSLGLIEGYGGRGKGGLPATLSPSEEEKAKGPHEKYGYNSYLSEKISLDRSIPDYRPTKCKELKYSKELPQISIIFIFVNEALSVILRSVHSAVNHTPTHLLKEIILVDDNSDEEELKAPLEEYVHKRYPGLVKVVRNQKREGLIRARIEGWKAATGQVTGFFDAHVEFTAGWAEPVLSRIQENRKRVILPSIDNIKQDNFEVQRYENSAHGYSWELWCMYISPPKDWWDAGDPSLPIRTPAMIGCSFVVNRKFFGEIGLLDPGMDVYGGENIELGIKVWLCGGSMEVLPCSRVAHIERKKKPYNSNIGFYTKRNALRVAEVWMDDYKSHVYIAWNLPLENPGIDIGDVSERKALRKSLKCKNFQWYLDHVYPEMRRYNNTIAYGELRNNKAKDVCLDQGPLENHTAILYPCHGWGPQLARYTKEGFLHLGALGTTTLLPDTRCLVDNSKSRLPQLLDCDKVKSSLYKRWNFIQNGAIMNKGTGRCLEVENRGLAGIDLILRSCTGQRWAIKNPIK	-1.487	Down
